Where a chain is given by its changes, count along the chain named. In names and notes the source's numbering stands.
B1: CyPPO13 A177C + F373M: CyPPO13 (SEQ ID NO: 4) PPO variant (protein)
chain: MNPATPEPLNAEVVVIGAGISGLTLAWRLQQGLSARGGSPQAVLLAEASSRVGGCISTQSKDGYRWEEGPNSFTPTPALLNLIAEVGLTDQLVLADAKLPRYIYWEGALLPVPLSPAAALGSRLLSVGGKLRALQGLLGFVPPPPGHEETVRQFFRRQLGSEVAERLVEPFTSGVYCGDPDQLSAVAAFPRVAGLEERYGSLFAGALQALRQRPQPSPAAIQPPPKRGQLGNLRQGLQQLPEALAQKLGDSLRLGWRALQLKRAGELYWVGFETPEGSRWVAARQVVLALPAYEAAALLQELNPPASQLLAEILYPPVAVVALAYPQEALPQPLRGFGHLIPRSQGLRTLGTIWASCLFPERAPQGYHSFLSMLGGATDAALARRRGIPPIPALSPEERAQIAHAELSQVLLTRRAEPVYLGERLWPRAIPQYTLGHRQRIAQVQAHLASQTPGIWVCANYLDGVALGDCVRRAEALAQQLLSQV
modifications: Synthetic CyPPO13
B2: CyPPO13 A177C + F373V: CyPPO13 (SEQ ID NO: 4) PPO variant (protein)
chain: B1 chain with M373V
modifications: Synthetic CyPPO13
B3: CyPPO13 G194Q + F373M: CyPPO13 (SEQ ID NO: 4) PPO variant (protein)
chain: B1 chain with C177A, G194Q
modifications: Synthetic CyPPO13
B4: CyPPO13 A177L + F373M: CyPPO13 (SEQ ID NO: 4) PPO variant (protein)
chain: B1 chain with C177L
modifications: Synthetic CyPPO13
B5: CyPPO13 F337V: CyPPO13 (SEQ ID NO: 4) PPO variant (protein)
chain: B1 chain with C177A, F337V, M373F
modifications: Synthetic CyPPO13
B6: CyPPO13 A177I + F373M: CyPPO13 (SEQ ID NO: 4) PPO variant (protein)
chain: B1 chain with C177I
modifications: Synthetic CyPPO13
B7: CyPPO13 V175L + F373M: CyPPO13 (SEQ ID NO: 4) PPO variant (protein)
chain: B1 chain with V175L, C177A
modifications: Synthetic CyPPO13
B8: CyPPO13 A177L: CyPPO13 (SEQ ID NO: 4) PPO variant (protein)
chain: B1 chain with C177L, M373F
modifications: Synthetic CyPPO13
B9: CyPPO13 F171A: CyPPO13 (SEQ ID NO: 4) PPO variant (protein)
chain: B1 chain with F171A, C177A, M373F
modifications: Synthetic CyPPO13
B10: CyPPO13 I353T: CyPPO13 (SEQ ID NO: 4) PPO variant (protein)
chain: B1 chain with C177A, I353T, M373F
modifications: Synthetic CyPPO13
B11: CyPPO13 V175C: CyPPO13 (SEQ ID NO: 4) PPO variant (protein)
chain: B1 chain with V175C, C177A, M373F
modifications: Synthetic CyPPO13
B12: CyPPO13 V318M + F373M: CyPPO13 (SEQ ID NO: 4) PPO variant (protein)
chain: B1 chain with C177A, V318M
modifications: Synthetic CyPPO13
B13: CyPPO13 A177L + F373V: CyPPO13 (SEQ ID NO: 4) PPO variant (protein)
chain: B1 chain with C177L, M373V
modifications: Synthetic CyPPO13
B14: CyPPO13 G194K + F373M: CyPPO13 (SEQ ID NO: 4) PPO variant (protein)
chain: B1 chain with C177A, G194K
modifications: Synthetic CyPPO13
B15: CyPPO13 G194M + F373M: CyPPO13 (SEQ ID NO: 4) PPO variant (protein)
chain: B1 chain with C177A, G194M
modifications: Synthetic CyPPO13
B16: CyPPO13 E340T: CyPPO13 (SEQ ID NO: 4) PPO variant, printed E340T, probably L340T (protein)
chain: B1 chain with C177A, L340T, M373F
modifications: Synthetic CyPPO13
B17: CyPPO13 A177L + F373T: CyPPO13 (SEQ ID NO: 4) PPO variant (protein)
chain: B1 chain with C177L, M373T
modifications: Synthetic CyPPO13
B18: CyPPO13 G194E + F373M: CyPPO13 (SEQ ID NO: 4) PPO variant (protein)
chain: B1 chain with C177A, G194E
modifications: Synthetic CyPPO13
B19: CyPPO13 V318M: CyPPO13 (SEQ ID NO: 4) PPO variant (protein)
chain: B1 chain with C177A, V318M, M373F
modifications: Synthetic CyPPO13
B20: CyPPO13 G194R + F373M: CyPPO13 (SEQ ID NO: 4) PPO variant (protein)
chain: B1 chain with C177A, G194R
modifications: Synthetic CyPPO13
B21: CyPPO13 R101A: CyPPO13 (SEQ ID NO: 4) PPO variant (protein)
chain: B1 chain with R101A, C177A, M373F
modifications: Synthetic CyPPO13
B22: CyPPO13 A177C + F373T: CyPPO13 (SEQ ID NO: 4) PPO variant (protein)
chain: B1 chain with M373T
modifications: Synthetic CyPPO13

System: CyPPO13
Assay: PPO enzyme activity and IC50 by herbicides, CyPPO13 wild type and variants (MBP-PPO fusion)
Assay type: biochemical, Synechococcus sp. JA-3-3Ab
Conditions: PPO enzyme activity of CyPPO13 protein, wild type = 100
Method: The enzyme activities of PPO protein and PPO protein variants were examined, and inhibition assay by PPO-inhibiting herbicides was conducted. It was confirmed that the PPO protein has low water-solubility, but in case of being expressed as a fusion protein with MBP (maltose binding protein) (MBP-PPO), the PPO protein is able to be stably expressed as water-soluble form. Therefore, the wild type and variant proteins which were expressed in the form of fusion protein with MBP were used in the present test (refer to FIG. 4).
In order to express wild type genes and mutant genes of CyPPO10 and CyPPO13 (refer to Example 1 and Example 4), those genes were introduced to pMAL-c2X vector (refer to FIG. 5) respectively, and then cloned to BL21 (DE3) E. coli (CodonPlus).
The enzyme activity of the purified wild type protein and variant proteins of CyPPO10 and CyPPO13 was measured by the following process.
At first, a substrate of PPO protein, Protoporphyrinogen IX was synthesized. This process was performed in the space where nitrogen gas is streamed. 6 mg of protoporphyrin IX was dissolved in 20% (v/v) EtOH 20 ml, and stirred under dark condition for 30 minutes. The obtained protoporphyrinogen IX solution was put into a 15 ml screw tube in an amount of 800 and flushed with nitrogen gas for 5 minutes. To this, 1 g of sodium amalgam was added and vigorous shaking was performed for 2 minutes. The lid was open to exhaust hydrogen gas in the tube. Thereafter, the lid was closed and incubated for 3 minutes. The […] was filtered using syringe and cellulose membrane filter. To 600 μl of the obtained […], 2M MOPS [3-(N-morpholino)propanesulfonic acid] was added in an amount of approximately 300 thereby adjusting pH to 8.0. To determine the enzyme activity of PPO protein, a reaction mixture was prepared with the following composition (based on 10 ml): 50 mM Tris-Cl (pH 8.0); 50 mM NaCl; 0.04% (v/v) Tween 20; 40 mM glucose (0.072 g); 5 units glucose oxidase (16.6 mg); and 10 units catalase (1 μl).
Two hundred microliters (200 μl) of reaction mixture containing a purified PPO protein were placed in 96 well plates, and preincubated for 30 min at room temperature to reduce the oxygen concentration by the reaction of glucose oxidase-catalase. The mineral oil was layered and then the reaction was initiated by adding the substrate, […], to a final concentration of 50 μM. The reaction proceeded at room temperature for 30 min and the fluorescence of protoporphyrin IX was measured using Microplate reader (Sense, Hidex) (excitation: 405 nm; emission: 633 nm). To calculate the PPO enzyme activity, protoporphyrinogen IX solution was kept open in the air to oxidize the solution (overnight). To this, 2.7N HCl was added, and the absorbance at 408 nm was measured. A standard curve was generated using standard protoporphyrin IX, and the PPO activity was measured by calibration of protoporphyrin IX using the standard curve of protoporphyrin IX.
The final concentration of each herbicide was as follows: […]

Molecule	Activity (%)
B1	77
B2	56
B3	37
B4	75
B5	88
B6	75
B7	93
B8	97
B9	70
B10	62
B11	94
B12	72
B13	49
B14	41
B15	43
B16	83
B17	62
B18	32
B19	81
B20	35
B21	87
B22	80

Reference: patent publication US11466286B2, “Methods and compositions for conferring and/or enhancing herbicide tolerance using protoporphyrinogen oxidase or variant thereof” (FarmHannong Co., Ltd., priority 2016, dated 2022)
